Substitutions are numbered along the chain they refer to.
T1: biotinylated CRH (Homo sapiens, UniProt P06850)
T1 construct: purchased GL Biochem 784751
T1 sequence (P06850 154-194): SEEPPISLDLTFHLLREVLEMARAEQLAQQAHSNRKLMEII

B1: PR302341-20: humanized variant of Series 10 mAb PR302341; VH SEQ ID NO: 283, VL SEQ ID NO: 340 (antibody, V domains shown)
VH: QVQLVQSGAEVKKPGASVKVSCKASGYTFTDYFMKWVRQAPGQRLEWMGVINPNNGDIFYNQKFKGRVTITRDTSASTAYMELSSLRSEDTAVYYCARGTDRALFAYWGQGTLVTVSS
VL: DVVMTQSPLSLPVTLGQPASISCRSGQSIVHSDGNTYLEWYQQRPGQSPRLLIYKVSNRFSGVPDRFSGSGSGTDFTLKISRVEAEDLGVYYCFQGSHIPWTFGGGTKVEIK
modifications: PR302341-15 VH, PR302341-20 VH, PR302341-70 VH, PR302341-71 VH,PR302341-72 VH; PR302341-19 VL, PR302341-20 VL, PR302341-21 VL, PR302341-22 VL,PR302341-23 VL, PR302341-28 VL, PR302341-29 VL, PR302341-2 VL,PR302341-41 VL, PR302341-55 VL, PR302341-56 VL, PR302341-57 VL,PR302341-
B2: PR302341-24: humanized variant of Series 10 mAb PR302341; VH SEQ ID NO: 284, VL SEQ ID NO: 336 (antibody, V domains shown)
VH: B1 VH with R72V, T74K
VL: B1 VL with S7T, L11S, S48P, S72A
modifications: PR302341-16 VH, PR302341-21 VH, PR302341-24 VH, PR302341-25 VH; PR302341-10 VL, PR302341-24 VL, PR302341-26 VL, PR302341-43 VL,PR302341-44 VL, PR302341-45 VL, PR302341-4 VL
B3: PR302341-21: humanized variant of Series 10 mAb PR302341; VH SEQ ID NO: 284, VL SEQ ID NO: 340 (antibody, V domains shown)
VH: B1 VH with R72V, T74K
VL: B1 VL
modifications: PR302341-16 VH, PR302341-21 VH, PR302341-24 VH, PR302341-25 VH; PR302341-19 VL, PR302341-20 VL, PR302341-21 VL, PR302341-22 VL,PR302341-23 VL, PR302341-28 VL, PR302341-29 VL, PR302341-2 VL,PR302341-41 VL, PR302341-55 VL, PR302341-56 VL, PR302341-57 VL,PR302341-
B4: PR302341-23: humanized variant of Series 10 mAb PR302341; VH SEQ ID NO: 286, VL SEQ ID NO: 340 (antibody, V domains shown)
VH: B1 VH with R44G, I70M, R72V, T74K, A76I, S85R, E89D
VL: B1 VL
modifications: PR302341-18 VH, PR302341-23 VH, PR302341-26 VH, PR302341-27 VH,PR302341-30 VH, PR302341-31 VH, PR302341-42 VH; PR302341-19 VL, PR302341-20 VL, PR302341-21 VL, PR302341-22 VL,PR302341-23 VL, PR302341-28 VL, PR302341-29 VL, PR302341-2 VL,PR302341-41 VL, PR302341-55 VL, PR302341-56 VL, PR302341-57 VL,PR302341-
B5: PR302334: Series 9 anti-CRH mAb from immunized wildtype mice; VH SEQ ID NO: 272, VL SEQ ID NO: 331 (antibody, V domains shown)
VH: EVKLVESGGGLVKPGGSLKLSCAASGFTFSTYAMSWVRQTPEKRLEWVASIRSGGTTYYPDSVKGRFTISRDNARNILYLQMSSLRSEDTAIYYCTRGIDWGQGTLVTVSA
VL: NIVMTQTPKFLLVSAGDRITITCKASQSVNNDVAWYQQKPGQSPKLLIYYASNRYTGVPDRFTGSGYGTDFTFTISTVQAEDLAVYFCQQDYSSWTFGGGTNLEIK
modifications: PR302334-1 VH, PR302334-2 VH, PR302334-3 VH, PR302334-4 VH,PR302334-5 VH, PR302334-6 VH, PR302334 VH; PR302334-14 VL, PR302334-15 VL, PR302334-16 VL, PR302334-17 VL,PR302334-18 VL, PR302334 VL
B6: PR302334-11: humanized variant of Series 9 mAb PR302334; VH SEQ ID NO: 273, VL SEQ ID NO: 329 (antibody, V domains shown)
VH: EVQLVESGGGLVQPGGSLRLSCAASGFTFSTYAMSWVRQAPGKGLEWVASIRSGGTTYYPDSVKGRFTISRDNSKNTLYLQMNSLRAEDTAVYYCTRGIDWGQGTTVTVSS
VL: DIQMTQSSLSASVSLGDRVTITCKASQSVNNDVAWYQQKPGKAPRLLIYYASNRYTGVPSRFSGSGSGTDFTFTISSLQPEDIATYYCQQDYSSWTFGGGTKVEIK
modifications: PR302334-10 VH, PR302334-11 VH, PR302334-12 VH, PR302334-14 VH,PR302334-7 VH, PR302334-8 VH, PR302334-9 VH; PR302334-11 VL, PR302334-5 VL
B7: PR302334-25: humanized variant of Series 9 mAb PR302334; VH SEQ ID NO: 275, VL SEQ ID NO: 330 (antibody, V domains shown)
VH: B6 VH with Q13K, S74A, T77S
VL: B6 VL with I83L, Y87F
modifications: PR302334-16 VH, PR302334-24 VH, PR302334-25 VH; PR302334-12 VL, PR302334-25 VL, PR302334-27 VL, PR302334-6 VL
B8: PR302309: Series 7 anti-CRH mAb from immunized wildtype mice; VH SEQ ID NO: 260, VL SEQ ID NO: 317 (antibody, V domains shown)
VH: QIQLVQSGPELKKPGETVKISCKASGYTFTNYGMNWVKQAPGKVLKWMGWINTYTGEPIYTDDFKGRFAFSLETSASTAYLQINNLKNEDTATYFCSRSTMITTGGVFAYWGQGTLVTVSA
VL: DVLMAQTPLSLPVSLGDQASISCRSSQTIVHSDGNTYLEWYLQKPGQSPKLLIYKVSNRFSGVPDRFSGSGSGTDFTLKISRVEAEDLGVYYCFQGSHVPWTFGGGTKLEIK
modifications: PR302309-1 VH, PR302309-2 VH, PR302309-3 VH, PR302309-4 VH,PR302309-5 VH, PR302309-6 VH, PR302309 VH; PR302309-13 VL, PR302309-14 VL, PR302309-15 VL, PR302309-16 VL,PR302309 VL

Test system: human CRHR2
Experiment: CRH-induced luciferase reporter blocking assay, CHO-CRE-hCRHR2 cells
Type: cell-based
Conditions: CHO-CRE-hCRHR2 cells, 0.1 nM CRH
Description: (§1) To create CHO-CRE-hCRHR1, -hCRHR2, -mCRHR1, and -mCRHR2 reporter cell lines, pcDNA3.1-hCRHR1, -hCRHR2, -mCRHR1, and -mCRHR2 were introduced into CHO-CRE cells established above by electroporation as described above. Selection antibiotics hygromycin at 500 μg/ml and G418 at 1,000 μg/ml were employed. Individual established stable cell lines were characterized by both CRH and forskolin stimulation.
Activated GPCR proteins increase production of the intracellular cAMP. CHO-CRE-human CRHR1 stable clone 11 was generated by introduction of pcDNA3.1-human CRHR1 under the selection of G418 and hygromycin. Human CRHR1 expression in CHO-CRE-hCRHR1 Clone 11 was confirmed by flow cytometry (data not shown). To further validate that the cell line was functional, CHO-CRE-hCRHR1 Clone 11 cells were treated with forskolin and CRH peptide. […] Subsequently CHO-CRE-hCRHR2 Clone 32, -mCRHR1 Clone 22, and -mCRHR2 Clone 8 cell lines were established using similar methodology and validated with CRH treatment (data not shown).
Blocking CRHR1 by small molecules or neutralization of CRH peptide can reduce luciferase expression if the CRH-CRHR1 system works in CHO-CRE-hCRHR1 cells. Antalarmin, a small molecule CRHR1 antagonist, blocked CRH-mediated luciferase expression in CHO-CRE-hCRHR1 Clone 11 (data not shown). Furthermore, sheep anti-CRH polyclonal antibody reduced CRH-mediated luciferase expression in these cells (data not shown). Likewise, sheep anti-CRH polyclonal antibody blocked CRH-mediated luciferase expression in CHO-CRE-hCRHR2, CHO-CRE-mCRHR1, and CHO-CRE-mCRHR2 cells (data not shown).
(§2) Cells were digested by trypsin-EDTA (Life technologies, Cat #:12604-013), centrifuged at 1,000 rpm for 5 min, resuspended in growth medium, counted using a cell counter, seeded at a concentration of 5,000 cells per 100 μl in 96-well flat plates, and incubated overnight. 50 μl of 4× serially diluted antibodies was added (8 points, 1/4 diluted by growth medium) to plates containing CHO-CRE-hCRHR1 cells, and 50 μl of 4×CRH (4× is 2 nM, final is 0.5 nM) was added. Similarly, 4×CRH (4× is 0.4 nM, final is 0.1 nM) was added to CHO-CRE-hCRHR2 cells and CHO-CRE-mCRHR1 cells, and 4×CRH (4× is 20 nM, final is 5 nM) was added to CHO-CRE-mCRHR2 cells. Next, plates were incubated 4-6 hours at 37° C. in a CO2 incubator. 60 μl of culture medium was removed, to which was added 60 μl of Bio-Glo luciferase, followed by incubation for 10 min at RT. Plates were read in a luciferase plate reader (EnVision, PerkinElmer).

| IC50 [nM] | Molecule |
| --- | --- |
| 0.263 | B1 |
| 0.099 | B2 |
| 0.272 | B3 |
| 0.127 | B4 |
| 0.803 | B5 |

Same assay, conditions: Table 9; hCRHR2

| IC50 [nM] | Molecule |
| --- | --- |
| 1.21 | B1 |
| 1.38 | B4 |

Test system: mouse CRHR2
Experiment: CRH-induced luciferase reporter blocking assay, CHO-CRE-mCRHR2 cells
Type: cell-based
Conditions: CHO-CRE-mCRHR2 cells, 5 nM CRH
Description: as §1, with “stimulation. […]” for “stimulation.”
as §2

| IC50 [nM] | Molecule |
| --- | --- |
| 0.602 | B1 |
| ~0.457 | B2 |
| 0.633 | B3 |
| 0.501 | B4 |
| 0.995 | B5 |

Same assay, conditions: Table 9; mCrhr2

| IC50 [nM] | Molecule |
| --- | --- |
| 1.98 | B1 |
| 1.37 | B4 |

Target: T1, biotinylated CRH
Experiment: Affinity determination with Octet
Type: binding
Conditions: not given
Description: Octet® Red 96e was used for affinity measurement. Octet® running buffer was prepared by diluting kinetics buffer 10× (Fortebio, Cat #18-1105) in PBS according to the manufacturer's instructions. Two columns of SA sensors (Fortebio, Cat #18-5019) were hydrated in running buffer for 10 mins, one for ligand capturing and the other for reference. Antibodies were 2-fold diluted and added into a 96-well plate. 30 nM biotinylated CRH (GL Biochem, Cat #784751) was captured by the first column of SA sensors for 20 seconds, while reference sensors were dipped into buffer wells. After a 60-second baseline step, sensors were dipped into analyte and buffer wells successively, with the association and dissociation time of 180 seconds and 800 seconds, respectively. Sensors were regenerated in glycine pH1.5 (Cytiva, Cat #BR-1003-54) before the next cycle. […] Signals of reference wells and reference sensors were subtracted by selecting “Double reference” before data fitting.

| kdis [s⁻¹] | kon [M⁻¹ s⁻¹] | Molecule |
| --- | --- | --- |
| <1e-07 | 684000 | B6 |
| <1e-07 | 285000 | B7 |
| 4.03e-06 | 263000 | B8 |
| <1e-07 | 669000 | B5 |
